The results in this text go back to patent US20130123472A1 (GlaxoSmithKline, published 2013).

What all share (assay): Western blot, lysates of transiently transfected HEK 293 cells
(In general: Immunoblotting shows a protein as a band on a membrane.)

One experiment concerns the target T1, MAGE-A8 (human, UniProt P43361 1-318).
T1 construct: In lysates of transiently transfected HEK 293 cells; construct not described
T1 sequence: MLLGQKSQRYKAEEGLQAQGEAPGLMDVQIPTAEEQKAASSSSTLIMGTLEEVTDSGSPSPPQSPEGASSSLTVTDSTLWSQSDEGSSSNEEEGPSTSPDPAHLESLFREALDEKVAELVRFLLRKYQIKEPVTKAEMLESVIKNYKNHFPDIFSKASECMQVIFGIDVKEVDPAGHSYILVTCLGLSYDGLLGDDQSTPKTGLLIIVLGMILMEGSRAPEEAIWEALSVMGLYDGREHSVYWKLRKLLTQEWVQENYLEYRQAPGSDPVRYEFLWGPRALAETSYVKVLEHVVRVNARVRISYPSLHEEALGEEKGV
The method, then: (§1) The specificity of mAbs 1B1, 16G7 and 23D2 were tested in Western blot analyses on HEK 293 cells transiently transfected with plasmids encoding MAGE-A1, A2, A3, A4, A6, A8, A9, A10, All and A12. Non-transfected cells were used as a control. Between 25 and 85 μg of lysates of transfected or non-transfected cells were electrophoresed on SDS-PAGE and transferred onto nitrocellulose. Immunodetection was performed by incubation of the blots with each of mAbs 1B1, 16G7 and 23D2. Immunodetection was additionally performed using a mixture of mAbs that together recognized all of the MAGE-A antigens expressed by the transfectants (see Table 6 for mAbs in this mixture).
(§2) Method: mini-gels were prepared with 10% acrylamide in the running gel and 4.5% acrylamide in the stacking gel. Samples were prepared in 40 μl of loading buffer (reducing conditions), the gel was loaded and migrated at 100V in the stacking gel and 200 V in the running gel. Proteins were transferred onto nitrocellulose at 100 mA during one hour at 4° C., and the membrane incubated in TBS-5% skimmed milk, and incubated with antibody diluted in TBS-1% skim milk for one hour at room temperature.

In a further experiment the target is T2, MAGE-A4 (human, UniProt P43358 1-317).
T2 construct: In lysates of transiently transfected HEK 293 cells; construct not described
T2 sequence: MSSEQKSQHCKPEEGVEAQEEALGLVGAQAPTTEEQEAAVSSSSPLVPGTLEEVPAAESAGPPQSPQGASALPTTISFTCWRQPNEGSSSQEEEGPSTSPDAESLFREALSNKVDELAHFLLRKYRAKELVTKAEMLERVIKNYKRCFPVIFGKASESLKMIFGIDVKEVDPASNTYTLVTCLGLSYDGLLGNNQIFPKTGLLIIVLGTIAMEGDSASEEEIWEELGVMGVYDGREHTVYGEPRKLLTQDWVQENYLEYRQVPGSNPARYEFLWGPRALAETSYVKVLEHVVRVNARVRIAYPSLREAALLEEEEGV
How it is done: as §1, §2

The target in a further experiment is T3, MAGE-A10 (human, UniProt P43363 1-369).
T3 construct: In lysates of transiently transfected HEK 293 cells; construct not described
How it is done:
as §1, §2

A further experiment concerns the target T4, MAGE-A1 (human, UniProt P43355 1-309).
T4 construct: In lysates of transiently transfected HEK 293 cells; construct not described
T4 sequence: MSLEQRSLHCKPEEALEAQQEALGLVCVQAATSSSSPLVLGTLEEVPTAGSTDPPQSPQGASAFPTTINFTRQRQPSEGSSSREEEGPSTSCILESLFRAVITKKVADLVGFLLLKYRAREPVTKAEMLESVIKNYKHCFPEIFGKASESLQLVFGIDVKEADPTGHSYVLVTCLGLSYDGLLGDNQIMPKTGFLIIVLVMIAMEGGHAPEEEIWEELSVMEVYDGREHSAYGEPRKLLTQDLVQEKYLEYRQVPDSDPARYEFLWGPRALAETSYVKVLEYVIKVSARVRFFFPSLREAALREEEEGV
How it is done:
as §1, §2

In a further experiment the target is T5, MAGE-A11 (human, UniProt P43364 1-429).
T5 construct: In lysates of transiently transfected HEK 293 cells; construct not described
T5 sequence: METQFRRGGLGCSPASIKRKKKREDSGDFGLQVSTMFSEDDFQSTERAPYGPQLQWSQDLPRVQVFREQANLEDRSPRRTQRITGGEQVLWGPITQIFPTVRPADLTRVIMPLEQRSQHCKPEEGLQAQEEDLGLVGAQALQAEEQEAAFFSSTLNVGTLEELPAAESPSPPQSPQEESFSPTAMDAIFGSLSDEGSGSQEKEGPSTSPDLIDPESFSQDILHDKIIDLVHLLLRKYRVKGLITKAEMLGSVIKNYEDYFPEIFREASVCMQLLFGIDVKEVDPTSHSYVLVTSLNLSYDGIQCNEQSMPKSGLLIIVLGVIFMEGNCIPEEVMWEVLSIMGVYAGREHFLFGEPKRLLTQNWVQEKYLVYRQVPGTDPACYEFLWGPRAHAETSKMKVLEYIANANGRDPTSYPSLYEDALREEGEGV
The method, then: as §1, §2

A further experiment concerns the target T6, MAGE-A6 (human, UniProt P43360 1-314).
T6 construct: In lysates of transiently transfected HEK 293 cells (Western blot); also endogenous MAGE-A6 in K562 lysate; Construct not described
How it is done: as §1, §2

In another experiment the target is T7, MAGE-A9 (human, UniProt P43362 1-315).
T7 construct: constructs not described
T7 sequence: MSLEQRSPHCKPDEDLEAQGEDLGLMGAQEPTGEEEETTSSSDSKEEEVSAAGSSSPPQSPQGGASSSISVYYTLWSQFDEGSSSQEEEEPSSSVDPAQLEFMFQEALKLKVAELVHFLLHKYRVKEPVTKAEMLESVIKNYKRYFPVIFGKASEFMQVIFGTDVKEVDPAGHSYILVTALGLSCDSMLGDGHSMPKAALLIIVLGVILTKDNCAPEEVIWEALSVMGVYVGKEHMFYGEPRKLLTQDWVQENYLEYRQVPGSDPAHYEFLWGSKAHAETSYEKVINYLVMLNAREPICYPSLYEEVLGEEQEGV
How it is done:
as §1, §2

T6 sequence (P43360 whole entry Y283N): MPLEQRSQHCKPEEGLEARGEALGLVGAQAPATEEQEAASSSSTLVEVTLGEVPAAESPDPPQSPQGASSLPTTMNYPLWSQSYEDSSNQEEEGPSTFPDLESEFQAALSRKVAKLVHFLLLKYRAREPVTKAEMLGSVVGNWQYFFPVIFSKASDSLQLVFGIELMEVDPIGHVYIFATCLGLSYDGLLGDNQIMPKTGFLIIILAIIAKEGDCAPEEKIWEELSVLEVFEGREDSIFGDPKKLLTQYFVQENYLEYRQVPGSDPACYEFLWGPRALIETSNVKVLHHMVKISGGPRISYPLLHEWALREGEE
T3 sequence (P43363 whole entry R166K/V234I): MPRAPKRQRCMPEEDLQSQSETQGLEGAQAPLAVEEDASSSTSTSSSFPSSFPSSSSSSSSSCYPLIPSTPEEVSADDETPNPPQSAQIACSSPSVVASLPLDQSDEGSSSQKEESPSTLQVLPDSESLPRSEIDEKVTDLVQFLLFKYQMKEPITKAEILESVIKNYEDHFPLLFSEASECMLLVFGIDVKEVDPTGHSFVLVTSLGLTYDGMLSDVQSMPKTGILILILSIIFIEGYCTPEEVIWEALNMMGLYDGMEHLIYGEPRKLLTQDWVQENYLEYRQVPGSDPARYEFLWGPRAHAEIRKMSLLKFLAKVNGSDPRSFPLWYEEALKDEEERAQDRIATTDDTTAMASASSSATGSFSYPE

B1: mAb 16G7 (antibody, IgG1, V domains shown)
VH: EVMVVESGGGLVKPGGSLKLSCAASGFTFRTNAMSWVRQTPEKRLEWVATITSGGGSTYYPVSVKGRFTISRDNAKNTLYLQMSSLRSEDTAIYYCVRQDYFDYWGQGTFVIVSS
VL: QAVVTQESALTTSPGETVTLTCRSSTGAVTSTNYANWVQEKPDHLFTGLIGGTNNRAPGVPARFSGSLIGDKAALTITGAQTEDEAIYFCALWYSNHWVFGGGTKLTVL
notes: also called clone 16G7; hybridoma 16G7
In the case of B1, the binding result with MAGE-A8 is “no binding (tested: Between 25 and 85 µg of lysates)”; in the experiment with MAGE-A4, “no binding (tested: Between 25 and 85 µg of lysates)”; in the experiment with MAGE-A10, “no binding (tested: Between 25 and 85 µg of lysates)”; in the experiment with MAGE-A1, “no binding (tested: Between 25 and 85 µg of lysates)”; with MAGE-A11 it was “no binding (tested: Between 25 and 85 µg of lysates)”; with MAGE-A6, “binds”. In addition, in the experiment with MAGE-A9, the binding result was “no binding (tested: Between 25 and 85 µg of lysates)”.

B2: mAb 23D2 (antibody, IgG2a, V domains shown)
VH: DVKLVESGGGLVKPGGSLKVSCVASGFTFSSYTMSWVRQTPEKRLEWVATITSGGGSSYYPDSVKGRFTISRDNAKNTLYLQITSLKSEDTAMYYCTSGGGVLLRLPLFAYWGQGTTLTVSS
VL: QAVVTQESALTTSPGETVTLTCRSSTGAVTASNYANWVQEKPDHSFTGLIGGINNRAPGVPARFSGSLIGDKAALTITGAQTEDEAIYFCALWYNNHWVFGGGTKLTVL
modifications: In the FIG. 8 ELISA and the FIG. 9 competition assay the antibody was biotinylated; the sites are not stated and the letters do not carry them.
notes: also called clone 23D2; hybridoma 23D2
In the case of B2, the binding result was “no binding (tested: Between 25 and 85 µg of lysates)” with MAGE-A8; “no binding (tested: Between 25 and 85 µg of lysates)” in the experiment with MAGE-A4; “no binding (tested: Between 25 and 85 µg of lysates)” with MAGE-A10; “no binding (tested: Between 25 and 85 µg of lysates)” in the experiment with MAGE-A1; “no binding (tested: Between 25 and 85 µg of lysates)” with MAGE-A11; “binds” in the experiment with MAGE-A6. Besides, the binding result with MAGE-A9 was “no binding (tested: Between 25 and 85 µg of lysates)”.

B3: mAb 1B1 (antibody, IgG1, V domains shown)
VH: DVQLQESGPGLVKPSQSLSLTCTVTGYSITSDYVWNWIRQFPGNKLEWMGYIGHSGRTSYNPSLKSRISITRDTSKNQFFLQLNSVTSEDTATYYCARGGNNGFAYWGQGTLVTVSA
VL: DIVMTQSPSSLTVTAGEKVTMSCKSSQSLLNSGNQKNYLTWYQQKPGQPPKLLIYWTSTRDSGVPDRFTGSGSGTDFTLTISSVQAEDLAVYYCQNDYSYPPTFGGGTKLEIKR
notes: Tested as hybridoma supernatant; also called clone 1B1; hybridoma 1B1
Regarding B3, the binding result with MAGE-A8 is “no binding (tested: Between 25 and 85 µg of lysates)”; in the experiment with MAGE-A4 it was “no binding (tested: Between 25 and 85 µg of lysates)”; with MAGE-A10 it was “no binding (tested: Between 25 and 85 µg of lysates)”; with MAGE-A1, “no binding (tested: Between 25 and 85 µg of lysates)”; with MAGE-A11, “no binding (tested: Between 25 and 85 µg of lysates)”; in the experiment with MAGE-A6, “binds”. For the same molecule, the binding result with MAGE-A9 was “no binding (tested: Between 25 and 85 µg of lysates)”.
